Source: publication PMC10805922, “Exosomal secreted SCIMP regulates communication between macrophages and neutrophils in pneumonia” (Nature Communications, 2024)
Each block holds one molecule with its values, some of them ahead of it. Where no end group is shown, it is not given here.

Tests used:
[1] = biological target: T1, murine FPR2 (murine, UniProt O88536 1-351); assay: other fluorescence titration; competitive binding assay; labelled SCIMP^N mixed with serially diluted fMLF (5-1280 nM) and a fixed amount of FPR-containing HEK293 membrane debris, fluorescence at 512 nm measured for 4 min
T1 construct: formyl peptide receptor 2, mouse, overexpressed in HEK293 cells; also called murine formyl peptide receptor 2; source: HEK293 overexpressing FPRs, membrane debris
T1 sequence (looked up): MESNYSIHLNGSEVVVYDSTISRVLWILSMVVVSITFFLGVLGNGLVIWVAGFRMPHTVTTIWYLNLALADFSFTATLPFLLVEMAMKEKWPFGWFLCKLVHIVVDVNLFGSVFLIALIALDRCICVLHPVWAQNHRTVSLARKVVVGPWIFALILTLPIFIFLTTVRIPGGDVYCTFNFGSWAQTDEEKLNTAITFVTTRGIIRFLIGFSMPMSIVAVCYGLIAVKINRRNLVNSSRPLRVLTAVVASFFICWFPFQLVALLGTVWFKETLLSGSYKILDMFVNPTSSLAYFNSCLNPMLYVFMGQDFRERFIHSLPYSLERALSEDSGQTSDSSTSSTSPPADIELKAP

[2] = biological target: T2, murine FPR1 (murine, UniProt P33766 1-364); assay: as above
T2 construct: formyl peptide receptor 1, mouse, overexpressed in HEK293 cells; also called murine formyl peptide receptor 1; source: HEK293 overexpressing FPRs, membrane debris
T2 sequence (looked up): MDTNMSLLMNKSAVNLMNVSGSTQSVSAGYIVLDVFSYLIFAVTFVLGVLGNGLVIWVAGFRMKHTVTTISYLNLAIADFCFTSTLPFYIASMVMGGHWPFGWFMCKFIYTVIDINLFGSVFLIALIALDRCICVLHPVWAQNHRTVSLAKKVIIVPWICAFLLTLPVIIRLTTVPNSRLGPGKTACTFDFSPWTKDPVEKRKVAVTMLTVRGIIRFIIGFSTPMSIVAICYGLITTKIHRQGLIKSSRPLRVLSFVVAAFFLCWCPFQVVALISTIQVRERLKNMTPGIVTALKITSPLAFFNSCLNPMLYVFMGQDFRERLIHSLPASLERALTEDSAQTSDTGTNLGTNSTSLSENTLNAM

[3] = biological target: T3, human formyl peptide receptor 2 (FPR2) (human, UniProt P25090 1-351); assay: as above
T3 construct: formyl peptide receptor 2, human, overexpressed in HEK293 cells; also called FPR2-HEK293; source: HEK293, transiently overexpressed
T3 sequence (looked up): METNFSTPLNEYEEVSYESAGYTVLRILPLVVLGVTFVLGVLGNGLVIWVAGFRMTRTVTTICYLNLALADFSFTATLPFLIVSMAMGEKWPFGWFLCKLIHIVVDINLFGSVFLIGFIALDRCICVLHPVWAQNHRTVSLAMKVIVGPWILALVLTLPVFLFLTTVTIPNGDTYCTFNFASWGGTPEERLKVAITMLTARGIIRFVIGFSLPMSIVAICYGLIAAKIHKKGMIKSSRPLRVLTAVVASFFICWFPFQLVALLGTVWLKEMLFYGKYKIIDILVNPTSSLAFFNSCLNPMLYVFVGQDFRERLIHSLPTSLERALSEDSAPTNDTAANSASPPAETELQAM

[4] = biological target: T4, human formyl peptide receptor 1 (FPR1) (human, UniProt P21462 1-350); assay: as above
T4 construct: formyl peptide receptor 1, human, overexpressed in HEK293 cells; also called FPR1-HEK293; source: HEK293, transiently overexpressed
T4 sequence (looked up): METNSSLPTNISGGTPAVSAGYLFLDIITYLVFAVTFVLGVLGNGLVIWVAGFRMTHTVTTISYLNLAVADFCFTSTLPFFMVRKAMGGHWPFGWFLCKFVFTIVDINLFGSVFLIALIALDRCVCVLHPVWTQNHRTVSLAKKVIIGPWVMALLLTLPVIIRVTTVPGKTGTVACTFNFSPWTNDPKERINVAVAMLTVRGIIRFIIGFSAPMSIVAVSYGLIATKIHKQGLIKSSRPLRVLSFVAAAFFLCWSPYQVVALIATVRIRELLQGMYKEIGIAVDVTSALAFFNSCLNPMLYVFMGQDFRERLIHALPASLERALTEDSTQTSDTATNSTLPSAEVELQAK

[5] = biological target: T3, human formyl peptide receptor 2 (FPR2); assay: other fluorescence titration; saturation binding assay; BODIPY FL iodoacetamide-labelled SCIMP^N with membrane component (debris) of HEK293 cells overexpressing FPRs, black/clear bottom 96-well plate, quenching of the label on binding, excited at 370 nm, detected at 512 nm, measured for 4 min; details: one partner purified
[6] = biological target: T4, human formyl peptide receptor 1 (FPR1); assay: as above; details: one partner purified
[7] = biological target: T1, murine FPR2; assay: as above; details: one partner purified
[8] = biological target: T2, murine FPR1; assay: as above; details: one partner purified

IC50 [1]: 43.1 nM
IC50 [2]: 148 nM
IC50 [3]: 38.4 nM
IC50 [4]: 55.2 nM
Molecule: N-Formyl-Met-Leu-Phe (fMLF) (peptide)

Kd [5]: 3.5 nM
Kd [6]: 3.8 nM
B1: human SCIMP N-terminus peptide (SCIMP^N, 18aa) (peptide)
peptide: MDTFTVQDSTAMSWWRNN
modifications: also: labeled with BODIPY FL iodoacetamide, site not given here
notes: the 18 amino acids before the transmembrane domain at the N-terminus (extramembrane fragment); also called SCIMP N-terminal peptides; source: synthetic peptide (Chinese-Peptide-Company.Inc), purity more than 95%

Kd [7]: 0.54 nM
Kd [8]: 1.08 nM
B2: murine SCIMP N-terminus peptide (murine SCIMP^N) (peptide)
peptide: MSWWRDNF
modifications: also: labeled with BODIPY FL iodoacetamide, site not given here
notes: N-terminus peptide; source: synthetic peptide (chemically synthesized and purified; Chinese-Peptide-Company.Inc), purity more than 95%
